Residue numbers refer to the chain shown, from its start.
T1: human C16orf54 (Homo sapiens, UniProt Q6UWD8)
T1 construct: expressed in transfected cells; host or cells: murine sarcoma cells (D42M1-huC16orf54)
T1 sequence (Q6UWD8 1-224): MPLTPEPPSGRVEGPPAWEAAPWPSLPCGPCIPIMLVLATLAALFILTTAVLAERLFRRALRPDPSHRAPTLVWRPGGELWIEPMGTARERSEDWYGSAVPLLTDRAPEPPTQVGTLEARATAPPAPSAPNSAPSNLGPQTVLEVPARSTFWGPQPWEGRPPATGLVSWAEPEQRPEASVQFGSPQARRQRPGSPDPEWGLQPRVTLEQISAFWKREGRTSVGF

T2: extracellular domain of c16orf54 (amino acids 1-31) fused to human IgG1 Fc (Homo sapiens, UniProt Q6UWD8)
T2 construct: the extracellular domain of c16orf54 (amino acids 1-31) either N terminal or C-terminal to a human IgG1 Fc domain; made in house; host or cells: 293 T cells, transient; Protein A purification
T2 sequence (Q6UWD8 1-31 limits assumed): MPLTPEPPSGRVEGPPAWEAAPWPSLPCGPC

B1: R29-7-1C: murine anti-C16orf54 monoclonal antibody, IgG2a; VH SEQ ID NO: 8, VL SEQ ID NO: 10 (antibody, V domains shown)
VH: MRVLILLWLFTAFPGILSDVQLQESGPGLVKPSQSLSLTCTVTGYSITSDYAWNWIRQFPGNKLEWMGYISYSGSIRYNPSLKSRISITRDTSKNQFFLQLNSVTTEDTATYYCAREKYDNYYYAMDYWGQGTSVTVSS
VL: MDSQAQVLMLLLLWVSGTCGDIVMSQSPSSLAVSVGEKVTLSCKSSQNLLYSTNQKNYLAWYQQKPGQSPKLLIYWASTRESGVPDRFTGSGSGTDFTLTISSVKAEDLAVYYCQQYYSYRTFGGGTKLEIK
modifications: R29-7-1C heavy chain variable region; R29-7-1C light chain variable region
B2: R29-67-7A: murine anti-C16orf54 monoclonal antibody, IgG2a; VH SEQ ID NO: 12, VL SEQ ID NO: 14 (antibody, V domains shown)
VH: B1 VH with S71N, S75R, I76T, K83N, I88L, K94T, K118N, N121Y, Y122E, Y123F
VL: B1 VL with D2E, L41M, T53S, S119I
modifications: R29-67-7A heavy chain variable region; R29-67-7A light chain variable region

Key:
human C16orf54 = target: T1, human C16orf54; assay: Flow cytometry reactivity with sarcoma cells expressing human C16orf54 (fold change over isotype); assay type: binding; details: for binding to human C16orf54 (flow cytometry): sarcoma cells expressing human C16orf54, 10 μg/ml antibody
Protocol: Anti-C16orf54 antibodies which bound to human C16orf54 were tested for their reactivity with human C16orf54 and their crossreactivity with C16orf54 from cynomolgous monkeys (cyno C16orf54) using flow cytometry. Sarcoma cells transfected with and expressing human C16orf54 or cyno C16orf54 were washed with PBS with 0.1% BSA, incubated with FcX receptor blocking solution (BioLegend) for 15 minutes, incubated with 10 μg/ml of anti-C16orf54 antibody for 1 hour at 4° C., washed twice with PBS with 0.1% BSA, incubated with 20 μg/ml of R-Phycoerythrin-AffiniPure F(ab′)2 Fragment Goat Anti-Mouse IgG, Fcγ Fragment Specific (Jackson ImmunoResearch) for 30 minutes at 4° C., washed twice with PBS with 0.1% BSA, incubated with the viability dye TO-PRO-3 iodide (Life Technologies), and immediately analyzed on a MACSQuant Analyzer instrument (Miltenyi). For each cell line and anti-C16orf54 antibody, a fold change was derived by dividing the median fluorescence intensity for Phycoerythrin in the live cell population for the anti-C16orf54 antibody by the median fluorescence intensity for Phycoerythrin in the live cell population for the IgG isotype control antibody.

[1] = tested on: human C16orf54 extracellular domain peptides; assay: C16orf54 peptide ELISA, human extracellular domain peptides; assay type: binding; details: human, cyno, or mouse extracellular domain peptides, not told apart; 10 μg/ml antibody
Protocol: Anti-C16orf54 antibodies which bind to human C16orf54, including antibodies that are crossreactive with cyno C16orf54, were tested for their binding to various peptides derived from C16orf54 in a peptide ELISA. A 384-well high binding black microplate (Greiner) was incubated with 2 μg/ml of protein (human, cyno, or mouse extracellular domain peptides) for 16 hours, incubated for 1 hr with a blocking buffer (PBS with 5% Fetal Bovine Serum), washed four times with TBS with Tween, incubated for 1 hour with 10 μg/ml of anti-C16orf54 antibody, washed four times with TBS with Tween, incubated for 1 hour with 10 μg/ml of Peroxidase-AffiniPure Goat Anti-Mouse IgG, Fcγ Fragment Specific (Jackson ImmunoResearch), washed four times with TBS with Tween, and peroxidase was detected with a luminometer (Molecular Devices) upon addition of SuperSignal® ELISA Pico Chemiluminescent Substrate (Thermo Scientific). The luminescence signal was determined.

[2] = target: T2, extracellular domain of c16orf54 (amino acids 1-31) fused to human IgG1 Fc; assay: C16orf54 peptide-Fc fusion protein ELISA; assay type: binding; details: serial dilution of antibody; HRP-conjugated anti mouse secondary
Protocol: Anti-C16orf54 antibodies which bind to human C16orf54, including antibodies that are crossreactive with cyno C16orf54, were tested for their binding to various peptides derived from C16orf54 that were fused to human IgG (e.g., IgG1) constant regions to generate various peptide-Fc fusion proteins in an Fc-based ELISA. An exemplary Fc sequence comprises an IgG1 Hinge region sequence and IgG1 CH3 and […] domain sequences.
The fusion proteins were transiently expressed in 293 T cells. Protein was purified from the 293 expression supernatants by Protein A-based affinity purification. Exemplary C16 peptide-Fc fusion constructs that were made and purified are shown with their protein yield in Table 38. ELISA assays were performed by coating 384 well plates with the fusion proteins overnight at 4C. Antibodies were analyzed by serial dilution with concentrations ranging from 40 ug/mL to […]. Binding was detected with an HRP-conjugated anti mouse secondary antibody.

[3] = tested on: human erythroid and myeloid progenitors (normal human bone marrow); assay: Colony forming unit (CFU) progenitor cell assays; assay type: cell-based; details: for BFU-E / CFU-E / CFU-GEMM / CFU-GM / Total CFC / Total Erythroid: colonies after 14 days; for direct effect on colony number or colony size of bone marrow progenitors: 0.032-100 μg/ml added directly into the methylcellulose matrix, 14 days; for indirect effect on colony number or colony size of progenitors: 0.032-100 μg/ml, 24 hours liquid culture, then methylcellulose matrix
Protocol: Colony forming unit (CFU) assays were performed to establish if there is binding of anti-C16orf54 antibodies to various progenitor cells including: CFU-E: colony forming unit erythroid (erythroid colony forming cells); BFU-E: burst forming unit erythroid (earliest known erythroid precursor cells); CFU-GM: colony forming unit granulocyte/macrophage (granulocyte-macrophage colony forming cells); and CFU-GEMM: colony forming unit granulocyte, erythrocyte, monocyte/macrophage, megakaryocyte (most primitive colony-forming cells). […] Clogenic progenitors of the human erythroid and myeloid lineages were set up in methylcellulose-based medium. All test antibodies and reagents were added to the medium at indicated concentrations. Triplicate cultures were initiated for each condition. Following 14 days in culture myeloid and erythroid colonies were assessed microscopically and scored. For these assays, anti-C16orf54 antibodies were evaluated for their direct and indirect effects on human erythroid and myeloid progenitor proliferation. […] Indirect effects on progenitors were assessed by incubating the cells with these antibodies in a liquid culture for 24 hours and subsequent culture of these cells in the methylcellulose matrix.

Molecule | binding to C16orf54-expressing cells (dual binders) (human C16orf54) | binding to human C16orf54 (flow cytometry) (human C16orf54) | binding to peptides derived from the extracellular domain of C16orf54 (peptide ELISA) [1] | binding to peptide-Fc fusion proteins (Fc-based ELISA) [2] | BFU-E ([3]; 0.032 μg/ml) | CFU-E ([3]; 0.032 μg/ml) | CFU-GM ([3]; 0.032 μg/ml) | Total CFC ([3]; 0.032 μg/ml) | Total Erythroid ([3]; 0.032 μg/ml) | BFU-E ([3]; 0.8 μg/ml) | CFU-E ([3]; 0.8 μg/ml) | CFU-GM ([3]; 0.8 μg/ml) | Total CFC ([3]; 0.8 μg/ml) | Total Erythroid ([3]; 0.8 μg/ml) | BFU-E ([3]; 4 μg/ml) | CFU-E ([3]; 4 μg/ml) | CFU-GM ([3]; 4 μg/ml) | Total CFC ([3]; 4 μg/ml) | Total Erythroid ([3]; 4 μg/ml) | BFU-E ([3]; 20 μg/ml) | other results
B1 | bind to C16orf54-expressing cells | bind human C16orf54 | bind to the various peptides derived from the extracellular domain (ECD) of C16orf54 | able to bind to the peptide-Fc fusion proteins | 31 +/− 2 | 8 +/− 2 | 45 +/− 3 | 83 +/− 4 | 38 +/− 4 | 31 +/− 2 | 8 +/− 2 | 42 +/− 4 | 82 +/− 3 | 39 +/− 4 | 32 +/− 2 | 7 +/− 2 | 44 +/− 4 | 82 +/− 6 | 38 +/− 3 | 28 +/− 5 | CFU-GEMM ([3]; 0.032 μg/ml): 1 +/− 1; CFU-GEMM ([3]; 0.8 μg/ml): 1 +/− 1; CFU-E ([3]; 20 μg/ml): 8 +/− 2; CFU-GEMM ([3]; 20 μg/ml): 1 +/− 1; CFU-GM ([3]; 20 μg/ml): 40 +/− 5; Total CFC ([3]; 20 μg/ml): 76 +/− 8; Total Erythroid ([3]; 20 μg/ml): 36 +/− 4; BFU-E ([3]; 100 μg/ml): 30 +/− 3; CFU-E ([3]; 100 μg/ml): 8 +/− 3; CFU-GEMM ([3]; 100 μg/ml): 1 +/− 1; CFU-GM ([3]; 100 μg/ml): 44 +/− 4; Total CFC ([3]; 100 μg/ml): 82 +/− 4; Total Erythroid ([3]; 100 μg/ml): 38 +/− 4; direct effect on colony number or colony size of bone marrow progenitors [3]: no effect on colony number or colony size of bone marrow progenitors; indirect effect on colony number or colony size of progenitors [3]: no effect on colony number or colony size
B2 | bind to C16orf54-expressing cells | bind human C16orf54 | bind to the various peptides derived from the extracellular domain (ECD) of C16orf54 | able to bind to the peptide-Fc fusion proteins | 28 +/− 2 | 7 +/− 2 | 39 +/− 3 | 74 +/− 4 | 35 +/− 1 | 32 +/− 3 | 7 +/− 2 | 43 +/− 5 | 81 +/− 6 | 38 +/− 5 | 30 +/− 2 | 9 +/− 2 | 43 +/− 2 | 81 +/− 1 | 39 +/− 3 | 33 +/− 3 | CFU-E ([3]; 20 μg/ml): 6 +/− 2; CFU-GEMM ([3]; 20 μg/ml): 1 +/− 1; CFU-GM ([3]; 20 μg/ml): 40 +/− 1; Total CFC ([3]; 20 μg/ml): 79 +/− 4; Total Erythroid ([3]; 20 μg/ml): 39 +/− 3; BFU-E ([3]; 100 μg/ml): 32 +/− 2; CFU-E ([3]; 100 μg/ml): 7 +/− 2; CFU-GM ([3]; 100 μg/ml): 43 +/− 6; Total CFC ([3]; 100 μg/ml): 83 +/− 5; Total Erythroid ([3]; 100 μg/ml): 39 +/− 3; direct effect on colony number or colony size of bone marrow progenitors [3]: no effect on colony number or colony size of bone marrow progenitors; indirect effect on colony number or colony size of progenitors [3]: no effect on colony number or colony size

— US20150231240A1, “ANTI-C16ORF54 ANTIBODIES AND METHODS OF USE THEREOF” (priority 2012, published 2015)
